Values of other authors in patent publication US11040110B2, “Polypeptide complex comprising non-peptidyl polymer having three functional ends” (HANMI SCIENCE CO., LTD., priority 2008, dated 2021).

Conditions: Osborn et al. 2002

Substance: interferon alpha
- serum half-life: 5 h
